Results from ChEMBL document CHEMBL1137897, “Inhibition of lysosomal cysteine proteases by chrysotherapeutic compounds: a possible mechanism for the antiarthritic activity of Au(I)” (Bioorg Med Chem Lett, 2004).

How the values were obtained:
AURANOFIN [1] = conditions: Paramecium tetraurelia; 300 uM
Description: Michaelis-Menten constant determined against Paramecium tetraurelia cathepsin L at 300 uM

AURANOFIN [2] = conditions: Paramecium tetraurelia; 3 uM
Description: Michaelis-Menten constant determined against Paramecium tetraurelia cathepsin L at 3 uM

AURANOFIN [3] = conditions: Paramecium tetraurelia; 30 uM
Description: Michaelis-Menten constant determined against Paramecium tetraurelia cathepsin L at 30 uM

AURANOFIN [4] = conditions: Paramecium tetraurelia; 300 nM
Description: Michaelis-Menten constant determined against Paramecium tetraurelia cathepsin L at 300 nM

B1: Putative cathepsin L 3 (Paramecium tetraurelia), Q94715 (protein)
chain: MKQFLTAAIVTLLMTAGYYHLQEDDTNDFERWALKNNKFYTESEKLYRMEIYNSNKRMIEEHNQREDVTYQMGENQFMTLSHEEFVDLYLQKSDSSVNIMGASLPEVQLEGLGAVDWRNYTTVKEQGQCASGWAFSVSNSLEAWYAIRGFQKINASTQQIVDCDYNNTGCSGGYNAYAMEYVLRVGLVSSTNYPYVAKNQTCKQSRNGTYFINGYSFVGGSQSNLQYYLNNYPISVGVEASNWQFYRSGLFSNCSSNGTNHYALAVGFDSANNWIVQNSWGTQWGESGNIRLYPQNTCGILNYPYQVY
Km (AURANOFIN [1]): 49 µM
Km (AURANOFIN [2]): 32 µM
Km (AURANOFIN [3]): 47 µM
Km (AURANOFIN [4]): 27 µM
